Key:
Conditions in all cases: protein: recombinant; tags: MBP; label: 32P
MBP-SUV39H1 42-106 R84A [1] = biological target: T1, MBP-SUV39H1 42-106 R84A (Homo sapiens, UniProt O43463 42-106, R84A); experiment: filter binding; 20 mM Tris-HCl pH 7.4, 50 mM NaCl, 10% glycerol, ~4 U RNase inhibitor, room temperature 10 min; native gel 0.5X TBE at 25 C; filter binding on nitrocellulose in the same buffer
T1 sequence: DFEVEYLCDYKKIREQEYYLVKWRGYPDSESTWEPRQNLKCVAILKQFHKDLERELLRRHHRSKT

MBP-SUV39H1 42-106 R55A [2] = biological target: T2, MBP-SUV39H1 42-106 R55A (Homo sapiens, UniProt O43463 42-106, R55A); experiment: as above
T2 sequence: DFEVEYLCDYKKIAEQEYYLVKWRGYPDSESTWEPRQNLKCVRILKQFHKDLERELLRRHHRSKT

MBP-SUV39H1 42-106 R84A [3] = biological target: T1, MBP-SUV39H1 42-106 R84A; experiment: EMSA; 20 mM Tris-HCl pH 7.4, 50 mM NaCl, 10% glycerol, ~4 U RNase inhibitor, room temperature 10 min; native gel 0.5X TBE at 25 C; filter binding on nitrocellulose in the same buffer
MBP-SUV39H1 42-106 R55A [4] = biological target: T2, MBP-SUV39H1 42-106 R55A; experiment: as above

Measured: binding signal

B1: sense 19mer ssRNA (ssRNA)
RNA: AUAUGGGAACCACUGAUCC
> 40 fold lower affinity than WT: MBP-SUV39H1 42-106 R84A [1] | MBP-SUV39H1 42-106 R55A [2] | MBP-SUV39H1 42-106 R84A [3] | MBP-SUV39H1 42-106 R55A [4]

Source: article PMC5538822, “RNA-dependent stabilization of SUV39H1 at constitutive heterochromatin”
